In patent US20190092852A1:
One block for each substance: values may come before it.

Tests used:
[1] = target: T1, human IL-33 (R&D Systems, #3625-IL-010/CF) (human) (UniProt O95760)
T1 sequence (looked up): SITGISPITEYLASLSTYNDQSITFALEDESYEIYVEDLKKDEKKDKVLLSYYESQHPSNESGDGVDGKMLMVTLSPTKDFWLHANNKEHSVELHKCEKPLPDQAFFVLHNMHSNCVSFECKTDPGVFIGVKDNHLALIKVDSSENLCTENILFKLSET

[2] = target: cynomolgus monkey N-terminal 6-His-tagged and C-terminal Avi-tagged IL-33 (S112-T270) (cynomolgus monkey); assay: cell-based or functional assay
[3] = target: T1, human IL-33 (R&D Systems, #3625-IL-010/CF) (human); assay: cell-based or functional assay
[4] = target: T1, human IL-33 (R&D Systems, #3625-IL-010/CF) (human); remark: listed apart in the source
[5] = target: human IL-33 N-His (human)
[6] = target: cyno IL-33 (cell-based blocking assay of Example 2) (cynomolgus monkey)
[7] = target: human IL-33 (cell-based blocking assay of Example 2) (human) (UniProt O95760)
[8] = target: T1, human IL-33 (R&D Systems, #3625-IL-010/CF) (human); remark: listed apart in the source
[9] = target: T1, human IL-33 (R&D Systems, #3625-IL-010/CF) (human); remark: listed apart in the source
[10] = target: human ST2L on HEK-BLUE IL-33/IL-1beta cells (human) (UniProt Q01638)
Sequence of human ST2L on HEK-BLUE IL-33/IL-1beta cells (human) (Q01638 19-556 limits assumed): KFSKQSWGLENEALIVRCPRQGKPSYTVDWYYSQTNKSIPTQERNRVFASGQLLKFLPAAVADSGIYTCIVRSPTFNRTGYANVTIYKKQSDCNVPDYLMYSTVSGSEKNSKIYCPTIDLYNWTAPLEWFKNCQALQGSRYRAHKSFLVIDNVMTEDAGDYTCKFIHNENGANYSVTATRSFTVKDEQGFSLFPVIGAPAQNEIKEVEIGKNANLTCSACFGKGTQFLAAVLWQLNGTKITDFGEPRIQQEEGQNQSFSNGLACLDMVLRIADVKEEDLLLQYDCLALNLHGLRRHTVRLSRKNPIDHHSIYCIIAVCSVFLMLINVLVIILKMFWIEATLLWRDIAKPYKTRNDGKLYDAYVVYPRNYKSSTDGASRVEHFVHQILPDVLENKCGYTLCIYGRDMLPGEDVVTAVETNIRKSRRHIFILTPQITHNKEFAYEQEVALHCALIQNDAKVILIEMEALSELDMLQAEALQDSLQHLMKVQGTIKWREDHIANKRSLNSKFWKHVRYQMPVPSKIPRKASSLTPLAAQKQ

Sequence of cyno IL-33 (cell-based blocking assay of Example 2) (cynomolgus monkey) (chain, as listed by the source): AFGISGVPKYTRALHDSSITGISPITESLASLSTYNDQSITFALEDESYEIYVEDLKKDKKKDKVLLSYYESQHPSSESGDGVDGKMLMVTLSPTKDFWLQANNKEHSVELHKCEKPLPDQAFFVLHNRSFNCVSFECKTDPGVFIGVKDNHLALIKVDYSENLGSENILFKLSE
Sequence of cynomolgus monkey N-terminal 6-His-tagged and C-terminal Avi-tagged IL-33 (S112-T270) (cynomolgus monkey) (chain, as listed by the source limits assumed): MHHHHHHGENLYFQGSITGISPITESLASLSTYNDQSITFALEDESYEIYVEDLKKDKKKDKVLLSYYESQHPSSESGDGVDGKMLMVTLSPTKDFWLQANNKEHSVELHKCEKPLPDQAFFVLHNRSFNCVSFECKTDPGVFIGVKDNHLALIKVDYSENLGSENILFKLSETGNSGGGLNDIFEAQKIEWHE

IC50 (read off the curve) [1]: 0.8 pM | HEK-BLUE SEAP reporter IC50 [2]: 30 pM | HEK-BLUE SEAP reporter IC50 [3]: 27 pM | IFN-γ secretion from primary NK cells, IC50 [3]: 150 pM | IC50, IL-33-induced phospho-p38 in primary human basophils, 500 pM hIL-33 [4]: 7.9e-13 M | IC50; SEAP reporter, HEK-BLUE IL-33 cells, 15 pM human IL-33 N-His, 20 h [5]: 62.1 pM | IC90; SEAP reporter, HEK-BLUE IL-33 cells, 15 pM human IL-33 N-His, 20 h [5]: 257 pM | IC50 (HEK-BLUE SEAP reporter, IL-33 blocking) [6]: 1.8 pM | IC90 (HEK-BLUE SEAP reporter, IL-33 blocking) [6]: 3.6 pM | IC50 (HEK-BLUE SEAP reporter, IL-33 blocking) [7]: 12.2 pM | IC90 (HEK-BLUE SEAP reporter, IL-33 blocking) [7]: 46.7 pM | Ph-p38 MFI at 2 nM sST2 (500 pM human IL-33, primary basophils) [8]: 40 MFI | Ph-p38 MFI at 0.4 nM sST2 (500 pM human IL-33, primary basophils) [9]: 113 MFI
Substance: sST2-LZ (sST2 (M1-F328) C-terminal leucine zipper (LZ)-Flag-His) (receptor)

IC50 as printed in the table (fit value of a flat curve: Control IgG4 stays at about 115-125 % IL-33 activity up to 1e4 pM, no inhibition); SEAP reporter, HEK-BLUE IL-33 cells, 15 pM human IL-33 N-His [5]: 7.63e-06 pM | IC90 as printed in the table (fit value of a flat curve: Control IgG4 stays at about 115-125 % IL-33 activity up to 1e4 pM, no inhibition); SEAP reporter, HEK-BLUE IL-33 cells, 15 pM human IL-33 N-His [5]: 1.08e-06 pM | Ph-p38 MFI at 2 nM Ab (500 pM human IL-33, primary basophils) [8]: 110 MFI | Ph-p38 MFI at 0.4 nM Ab (500 pM human IL-33, primary basophils) [9]: 152 MFI
Substance: control IgG4 antibody

EC50 (SEAP reporter OD 620, HEK-BLUE IL-33/IL-1beta cells) [10]: 6 pM
Substance: human IL-33 N-His (ligand)
